Values of other authors as cited in article PMC7096212.

How the values were obtained:
insulin (Homo sapiens) = insulin (Homo sapiens) (UniProt P01308)
[1] = target: DILP-5 (Drosophila melanogaster) (UniProt Q7KUD5)
IGF-1 (Homo sapiens) = IGF-1 (Homo sapiens) (UniProt P05019)
Sequence of UniProt P05019 (P05019 49-118): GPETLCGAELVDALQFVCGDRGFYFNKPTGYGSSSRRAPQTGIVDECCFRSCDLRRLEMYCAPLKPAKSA

Sequence of UniProt Q7KUD5 (Q7KUD5 23-50, chain 1 of 2): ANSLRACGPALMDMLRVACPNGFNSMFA
Sequence of UniProt Q7KUD5 (Q7KUD5 84-108, chain 2 of 2): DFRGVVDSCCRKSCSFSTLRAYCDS
Sequence of UniProt P01308 (P01308 90-110): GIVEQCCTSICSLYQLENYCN

Kd (insulin (Homo sapiens)): 135 nM | Kd [1]: 2 nM | Kd (IGF-1 (Homo sapiens)): 13.6 nM
Substance: IBP (from UniProt Q09024)
